The text below walks through data of the supplement of paper PMC5998384.

Data set [1] has as its system HeLa Kyoto. Briefly: solubility in G1/S (NP-40 vs SDS abundance) (log2 ratio); higher = more soluble. As to conditions: cell cycle stage: G1/S.
In data set [2] the test system is HeLa Kyoto. In words: melting temperature (median over replicates), in situ; higher = more thermally stable.
Data set [3] relates to HeLa Kyoto. Briefly: solubility change mitosis vs G1/S (difference of NP-40 vs SDS log2 ratios) (log2 ratio difference); higher = more soluble in mitosis.
The subject of data set [4] is HeLa Kyoto. Briefly: thermal stability score vs G1/S (z-score of summed log2 fold changes over temperatures); higher = more thermally stable than in G1/S.
[5] abbreviates: cell cycle stage: early G1 (4.5 h after nocodazole release).
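Throughout, for melting temperature (median over replicates), in situ: HeLa Kyoto cells synchronized by double thymidine or nocodazole block, proteins quantified by TMT10plex mass spectrometry, three independent biological replicates.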
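Throughout, for solubility change mitosis vs G1/S (difference of NP-40 vs SDS log2 ratios): synchronized HeLa Kyoto cells (double thymidine block for G1/S, nocodazole release for mitosis), protein amounts in NP-40 versus SDS lysates quantified by mass spectrometry, three biological replicates.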
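Throughout, for solubility in G1/S (NP-40 vs SDS abundance): HeLa Kyoto cells arrested at G1/S by double thymidine block, proteins quantified by TMT10plex mass spectrometry in mild NP-40 versus SDS extracts, three biological replicates.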
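Throughout, for thermal stability score vs G1/S (z-score of summed log2 fold changes over temperatures): synchronized HeLa Kyoto cells, proteins quantified by TMT10plex mass spectrometry, three biological replicates, mitosis taken 0.5 h after nocodazole release, G1/S directly after double thymidine block.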

For “MREYKLVVLGSGGVGKSALTVQFVQGIFVEKYDPTIEDSYRKQVEVDCQQCMLEILDTAGTEQFTAMRDLYMKNGQGFALVYSITAQSTFNDLQDLREQILRVKDTEDVPMILVGNKCDLEDERVVGKEQGQNLARQWCNCAFLESSAKSKINVNEIFYDLVRQINRKTPVEKKKPKKKSCLLL [RAP1A]”, the “solubility in G1/S (log2)” value in the data set with HeLa Kyoto [1] was found to be 0.0631. For the same sequence, the results for the melting temperature in the data set on HeLa Kyoto [2] (cell cycle stage: G1/S) and in the data set on HeLa Kyoto [2] (cell cycle stage: mitosis) were 58.5 °C and 57.6 °C, respectively. Moreover, the “solubility change mitosis (log2)” value in the data set on HeLa Kyoto [3] is -0.0963. Besides, the thermal stability score in the data set on HeLa Kyoto [4] (setting [5]) is 1.29; in the data set on HeLa Kyoto [4] (cell cycle stage: mitosis), -0.46.

Regarding “MRLGSGTFATCCVAIEVLGIAVFLRGFFPAPVRSSARAEHGAEPPAPEPSAGASSNWTTLPPPLFSKVVIVLIDALRDDFVFGSKGVKFMPYTTYLVEKGASHSFVAEAKPPTVTMPRIKALMTGSLPGFVDVIRNLNSPALLEDSVIRQAKAAGKRIVFYGDETWVKLFPKHFVEYDGTTSFFVSDYTEVDNNVTRHLDKVLKRGDWDILILHYLGLDHIGHISGPNSPLIGQKLSEMDSVLMKIHTSLQSKERETPLPNLLVLCGDHGMSETGSHGASSTEEVNTPLILISSAFERKPGDIRHPKHVQQTDVAATLAIALGLPIPKDSVGSLLFPVVEGRPMREQLRFLHLNTVQLSKLLQENVPSYEKDPGFEQFKMSERLHGNWIRLYLEEKHSEVLFNLGSKVLRQYLDALKTLSLSLSAQVAQYDIYSMMVGTVVVLEVLTLLLLSVPQALRRKAELEVPLSSPGFSLLFYLVILVLSAVHVIVCTSAESSCYFCGLSWLAAGGVMVLASALLCVIVSVLTNVLVGGNTPRKNPMHPSSRWSELDLLILLGTAGHVLSLGASSFVEEEHQTWYFLVNTLCLALSQETYRNYFLGDDGEPPCGLCVEQGHDGATAAWQDGPGCDVLERDKGHGSPSTSEVLRGREKWMVLASPWLILACCRLLRSLNQTGVQWAHRPDLGHWLTSSDHKAELSVLAALSLLVVFVLVQRGCSPVSKAALALGLLGVYCYRAAIGSVRFPWRPDSKDISKGIIEARFVYVFVLGILFTGTKDLLKSQVIAADFKLKTVGLWEIYSGLVLLAALLFRPHNLPVLAFSLLIQTLMTKFIWKPLRHDAAEITVMHYWFGQAFFYFQGNSNNIATVDISAGFVGLDTYVEIPAVLLTAFGTYAGPVLWASHLVHFLSSETRSGSALSHACFCYALICSIPVFTYIVLVTSLRYHLFIWSVFSPKLLYEGMHLLITAAVCVFFTAMDQTRLTQS [PIGG]”, the “solubility in G1/S (log2)” value with HeLa Kyoto [1] was -0.239. Further, the melting temperature in the data set with HeLa Kyoto [2] (cell cycle stage: G1/S) is 54.1 °C; in the data set on HeLa Kyoto [2] (cell cycle stage: mitosis), 53.8 °C. For the same sequence, the “solubility change mitosis (log2)” value in the data set on HeLa Kyoto [3] turned out to be 0.00219. Further, the figures for the thermal stability score with HeLa Kyoto [4] (setting [5]) and in the data set on HeLa Kyoto [4] (cell cycle stage: mitosis) were 0.623 and -0.407, respectively.

On to “MRLLPLAPGRLRRGSPRHLPSCSPALLLLVLGGCLGVFGVAAGTRRPNVVLLLTDDQDEVLGGMTPLKKTKALIGEMGMTFSSAYVPSALCCPSRASILTGKYPHNHHVVNNTLEGNCSSKSWQKIQEPNTFPAILRSMCGYQTFFAGKYLNEYGAPDAGGLEHVPLGWSYWYALEKNSKYYNYTLSINGKARKHGENYSVDYLTDVLANVSLDFLDYKSNFEPFFMMIATPAPHSPWTAAPQYQKAFQNVFAPRNKNFNIHGTNKHWLIRQAKTPMTNSSIQFLDNAFRKRWQTLLSVDDLVEKLVKRLEFTGELNNTYIFYTSDNGYHTGQFSLPIDKRQLYEFDIKVPLLVRGPGIKPNQTSKMLVANIDLGPTILDIAGYDLNKTQMDGMSLLPILRGASNLTWRSDVLVEYQGEGRNVTDPTCPSLSPGVSQCFPDCVCEDAYNNTYACVRTMSALWNLQYCEFDDQEVFVEVYNLTADPDQITNIAKTIDPELLGKMNYRLMMLQSCSGPTCRTPGVFDPGYRFDPRLMFSNRGSVRTRRFSKHLL [GNS]”, for which the “solubility in G1/S (log2)” value with HeLa Kyoto [1] was determined as 0.471. For the same sequence, the melting temperature with HeLa Kyoto [2] (cell cycle stage: G1/S) is 57.1 °C; in the data set with HeLa Kyoto [2] (cell cycle stage: mitosis), 57.6 °C. In the data set with HeLa Kyoto [3], the “solubility change mitosis (log2)” value was 0.0867. Also, the thermal stability score with HeLa Kyoto [4] (setting [5]) was -1.62; in the data set with HeLa Kyoto [4] (cell cycle stage: mitosis), -1.58.

As to “MRLPDLRPWTSLLLVDAALLWLLQGPLGTLLPQGLPGLWLEGTLRLGGLWGLLKLRGLLGFVGTLLLPLCLATPLTVSLRALVAGASRAPPARVASAPWSWLLVGYGAAGLSWSLWAVLSPPGAQEKEQDQVNNKVLMWRLLKLSRPDLPLLVAAFFFLVLAVLGETLIPHYSGRVIDILGGDFDPHAFASAIFFMCLFSFGSSLSAGCRGGCFTYTMSRINLRIREQLFSSLLRQDLGFFQETKTGELNSRLSSDTTLMSNWLPLNANVLLRSLVKVVGLYGFMLSISPRLTLLSLLHMPFTIAAEKVYNTRHQEVLREIQDAVARAGQVVREAVGGLQTVRSFGAEEHEVCRYKEALEQCRQLYWRRDLERALYLLVRRVLHLGVQMLMLSCGLQQMQDGELTQGSLLSFMIYQESVGSYVQTLVYIYGDMLSNVGAAEKVFSYMDRQPNLPSPGTLAPTTLQGVVKFQDVSFAYPNRPDRPVLKGLTFTLRPGEVTALVGPNGSGKSTVAALLQNLYQPTGGQVLLDEKPISQYEHCYLHSQVVSVGQEPVLFSGSVRNNIAYGLQSCEDDKVMAAAQAAHADDFIQEMEHGIYTDVGEKGSQLAAGQKQRLAIARALVRDPRVLILDEATSALDVQCEQALQDWNSRGDRTVLVIAHRLQTVQRAHQILVLQEGKLQKLAQL [TAP2]”, the “solubility in G1/S (log2)” value in the data set with HeLa Kyoto [1] is -0.259. Moreover, the melting temperature with HeLa Kyoto [2] (cell cycle stage: G1/S) is 49.8 °C; in the data set with HeLa Kyoto [2] (cell cycle stage: mitosis), 50.4 °C. For the same sequence, in the data set on HeLa Kyoto [3], the “solubility change mitosis (log2)” value is -0.195. The values for the thermal stability score with HeLa Kyoto [4] (setting [5]) and with HeLa Kyoto [4] (cell cycle stage: mitosis) were 0.266 and 0.39, respectively.

In the case of “MRLPRRAALGLLPLLLLLPPAPEAAKKPTPCHRCRGLVDKFNQGMVDTAKKNFGGGNTAWEEKTLSKYESSEIRLLEILEGLCESSDFECNQMLEAQEEHLEAWWLQLKSEYPDLFEWFCVKTLKVCCSPGTYGPDCLACQGGSQRPCSGNGHCSGDGSRQGDGSCRCHMGYQGPLCTDCMDGYFSSLRNETHSICTACDESCKTCSGLTNRDCGECEVGWVLDEGACVDVDECAAEPPPCSAAQFCKNANGSYTCEECDSSCVGCTGEGPGNCKECISGYAREHGQCADVDECSLAEKTCVRKNENCYNTPGSYVCVCPDGFEETEDACVPPAEAEATEGESPTQLPSREDL [CRELD2]”, the “solubility in G1/S (log2)” value in the data set on HeLa Kyoto [1] came to 0.092. The values for the melting temperature in the data set on HeLa Kyoto [2] (cell cycle stage: G1/S) and in the data set on HeLa Kyoto [2] (cell cycle stage: mitosis) were 57.2 °C and 59.6 °C, respectively. For the same sequence, in the data set with HeLa Kyoto [3], the “solubility change mitosis (log2)” value was -0.0918. Further, the results for the thermal stability score with HeLa Kyoto [4] (setting [5]) and in the data set with HeLa Kyoto [4] (cell cycle stage: mitosis) were -5.44 and -1.73, respectively.
